Measurements from PMC12198324.

Columns and labels:
[1] = target: rat µ opioid receptor (HA-µOR), stably expressed in HEK293 cells (rat) (UniProt P33535); test: radioligand binding; competition with 5 nM [3H]-naloxone as tracer; 20 µg total membranes of HEK293-µOR cells in DMEM, 37 °C, 1 h, filtration over GF/C filters; Ki
[2] = target: rat µ opioid receptor (HA-µOR), stably expressed in HEK293 cells (rat) (UniProt P33535)

Chain of UniProt P33535 (P33535 whole entry): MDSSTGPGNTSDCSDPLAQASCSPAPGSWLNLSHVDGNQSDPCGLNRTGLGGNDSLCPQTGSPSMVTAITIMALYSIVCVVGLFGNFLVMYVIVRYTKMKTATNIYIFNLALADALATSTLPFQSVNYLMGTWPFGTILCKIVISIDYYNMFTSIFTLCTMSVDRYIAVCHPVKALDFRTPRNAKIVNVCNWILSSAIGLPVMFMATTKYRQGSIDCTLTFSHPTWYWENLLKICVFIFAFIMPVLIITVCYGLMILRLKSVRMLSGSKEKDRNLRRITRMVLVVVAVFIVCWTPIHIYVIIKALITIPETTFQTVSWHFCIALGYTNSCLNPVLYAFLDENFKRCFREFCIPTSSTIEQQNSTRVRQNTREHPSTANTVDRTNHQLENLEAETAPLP

Ki [1]: 39.7 nM
ERK-1/2 phosphorylation after 2.5 min in HEK293-µOR cells (western blot), EC50 [2]: 5.8 nM
inhibition of FSK (10 µM) induced cAMP accumulation in HEK293-µOR cells, EC50 [2]: 4.17 nM
Substance: endomorphin-1 (peptide)
